These results are taken from the nanobody polyreactivity screen of Harvey et al. (2022).

The data set is described as follows: yeast display, Sf9 membrane polyspecificity reagent, FACS + sequencing; frameworks hold sequencing errors. The procedure, abridged: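 Using colony PCR, genes from sorted yeast display clones were amplified, then sequenced on MiSeq at 2 × 250 and filtered by CDR length. The clones had been stained with 10% biotinylated, detergent-solubilized Sf9 membrane reagent for 1 hour at 4 °C and sorted by FACS into low and high (top ~1%) gates on anti-HA and streptavidin fluorescence. Polyreactivity labels come from the gate of origin.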
Regarding “QVQLVESGGGLVQAGGSLRLSCAASGSTFGRYAMGWSRQAPGKERELVAAITTSGRRTRYADSVKGRFTISRDNAKNTVYLQMNSLKPEDTAVYYCAASGAQGPDYDYWGQGTQVTVSS”, the “polyreactivity (PSR sort gate)” value is given as “low polyreactivity”. Turning to “QVQLVESGGGLVQAGGSLRLSCAASGSTFDVYAMGWYRQAPGKERELVAAISRSGGSTYYADSVKGRFTISRDNAKNTVYLQMNSLKPEDTAVSYCNARLARWGSDEYNYWGQGTQVTVSS”, the “polyreactivity (PSR sort gate)” value is “low polyreactivity”. With “QVQRVESGGGLVQAGGSLRLSCAASGSIIQPYARGWYRQSPGKERELVAAIRSSTGSTYYADSVKGRFTISRDIAKNTVYLQQNSLKPEDSAVYYCARRRWSYVRGYSSGMYYWGQGTQVTVSS”, the “polyreactivity (PSR sort gate)” value is on record as “high polyreactivity”. Take “QVQLVESGGGLVQAGGSLRLSCAASGFIFEGNAMGWYRQAPGKERELVAAISSSSGRTRYADSVKGRFTISRDNAKNTVYLQMNSLKPEDTAVYYCAARRQSTRPGFYYWGQGTQVTVSS”: the “polyreactivity (PSR sort gate)” value is “high polyreactivity”.

As to “QVPLVESGGGLVQAGGSLRLSCAAYGFTFWTYAMGWYRQAPGKDRELVAAISRSAGRTYYADSVKGRFTISRDNAKNTVYLQMNSLKPEVSAVYYCNARAGYERYGYWGQGSQVTVSS”, the “polyreactivity (PSR sort gate)” value is “high polyreactivity”. For “QVQLVESGGGLVQAGGSLRLSCAASGRTYGYAMGWYRQAPGKERELVARITWRGGSTSYADSVKGRFTISRENAKNTVYLQMNSLKPEDTAVYYCAAGFNSSDWHYYYRGQGTQVTVSS”, the “polyreactivity (PSR sort gate)” value is recorded as “high polyreactivity”. Regarding “QVQLVESGGGLVQAGGSLRLSCAASGRTFVFNAMGWYRQAPGKERELVAGISGSGGSTYYADSVKGRFTISRDNAKNTVYLQMNSLKPEDTAVYYCATKFPRKELDQDSVSGLGYWGQGTQVTVSS”, the “polyreactivity (PSR sort gate)” value is listed as “low polyreactivity”. On to “QVQVVESGGGLVQAGGRLRLSFAASGFTFESYAMGWYRQAPGKERELVPAISDGGGDTYYADSVKGRFTISRDNAKNTVYLQMNSLKPEDTAVYYCAAEWDGNWSRCAGGYDYWGQGTQVTVSS”, for which the “polyreactivity (PSR sort gate)” value is “low polyreactivity”. For the sequence “QVQLVESWGGLVQAGGTLRLSCAPSGYIFYFNDMGCYIQAPGKERELVAAITWSGTGTYYADSVKGRFTISRDNAKNTVYLQMNSLKPEDTAVYYCAAREWTSQDRQHNYWGQGTQVTVSS”, the “polyreactivity (PSR sort gate)” value is “low polyreactivity”. As to “QVQLVESGGGLVQAGGSLRLSCAASGYTFLDYAMGWYRQAPGKERELVAAINSGGSTYYADSEKGRFTISRDNAKNTVYLQMNSLKPEDTAVYYCAVDPPYSYSLSRYGYWGQGTQVTVSS”, the “polyreactivity (PSR sort gate)” value is listed as “low polyreactivity”. Consider “QVQLVESGGGLVQAGGSLRLSCAASGRTFRYNALGWYRQAPGKETELVAAISGRGSSTYYADSVKGRFTISRDNAKNTVYLQMNSLKPEDTAVYYCAALPASVRRPGWHDYWGQGTEVTVSS”, for which the “polyreactivity (PSR sort gate)” value is reported as “high polyreactivity”. For “QVQLVESGGGLVEAGGSLSLSCAASGSTFYKYSMGLYRQAPGKESELVAAITGSGVSTYYADSVKGRFTMSRDNAKNTVYLQMNSLKPDDTAVYYCNAESRSRPYTSSYDYWGQGTQVTVSS” the value was “high polyreactivity”; for “QVELVESGGGLVQAGGSLRLSCPASGRTFYYYAMGWSRQEPGKERELVATITKSSGSTYYADSVKGRFTISRDNAKNTVYLQMNSLKPEDTAVYYCNADPWAKTPYYYWGQGTQVTVSS”, “high polyreactivity”; for “QDQLVESGGGLVQAGGSLRLSCAASGSTIPISVRGWYRQAPGKERELVAAITYSGGSTYYADSVKGRFTISRDNAKNTVYLQMNSLKPEDTAVYYCAAGVYRWHYLYKYTQRRVEYWGQGTQVTVSS”, “high polyreactivity”.

For the sequence “QVQLVESGGGLVQAGGSLRLSCAASGSIFISNAMGWYRQAPGKEWELVAAINWTTGRTRYADSVKGRFTISRDNAKNTVYLQMNSLKPEDTAVYYCAARPYGGGRRSIYYYWGQGHQVTVSS”, the “polyreactivity (PSR sort gate)” value is “high polyreactivity”. For “QVQLVESGGGLVQAGGSLRLSCAASGSIFSKYVMGWYRQAPGKERELVAAISWSGTRTYYADSVKGRFTISRDNAKNTVYLQMNSLKPEDTAVDYCAARRLYAGHQYDYWGQGTQVTVSS”, the “polyreactivity (PSR sort gate)” value is “high polyreactivity”. With “QVQLQESGGGLVQAGGSLRKSCAASGSVSYQEAMGWYRQAPGKERELVATISFGANTNYADSVKGRFTISRDNAKNTVYLQMNSLKPEDTAVYYCAAESLFDDYYGYWGQGTQVTVSS”, the “polyreactivity (PSR sort gate)” value is recorded as “low polyreactivity”.

In the case of “QVQLVESGGGLVQAGGSLRLSCAASGRTINRYDMGWYRQAPGKERELVAAISTSGGTTYYADSVKGRFTISRDNAKNTVYLQMNSLKPEDTAVYYCNARALAYWGQGTKVTVSS”, the “polyreactivity (PSR sort gate)” value is listed as “high polyreactivity”. Then “QVHLVESGGGLVQAGGSLRLSCDASGITFRRYGMGWYRQAPGKERELVATITSSVGSRTYYADSVKGRFTISRDNAKNTVYLQMNSLKPEDTAVYYCAADHRVYDYEYWGQVTQVTVSS”, with “low polyreactivity”. Take “QVQLVESGGGLVQAGGSLRLSCAASGRILDYNAMGWYRQAPGKERELVAAITWRGGSTYYADSVKGRFTISRDNAKNTVYLQMNSLKPEDTAVYYCNARWSKTAHTRFGYWGQGTQVTVSS”: the “polyreactivity (PSR sort gate)” value is given as “low polyreactivity”. For “QVQLVESGGGLVQAGGSLRLSCAASGSNFDVNAMGWYRQAPGKERELVAAISDSGGSTYYADSVKGRFTISRDNAKNTVYLQMNSLKPEDTAVYYCNADWSWYNYYDFDYWGQGTQVTVSS” the value was “low polyreactivity”; for “QGQHVDSGGVLVQAGGSLRLSCAASGITVYLYAMGWYRPAPGKEREMVATISRSGGSTYADSVKGRFTISRDNAKNTVYLQMYSLKPEDSAVYYCNADVLSTGYIAYDYWGQGTQVTVSS”, “low polyreactivity”; for “QVQLVESGGGLVQAGGSLRLSCAASGRILPFNAMGWYRQAPGKERELVAAIRWRGSSTYYADSVKGRFTISRDIAKNTVYLQMNSLKPEDTAVYYCAAPSSVRGKVISADYGYWGQGTQVTVSS”, “high polyreactivity”. Then “QVQLVESRGGLVQAGGSLRLSCAASVGTFGLNAMGWYSQAPGKERELVADIDGRGGSTYYADSVKGRFTISRDNAKNTFDLQMNSLKPEDTAVYYSAARAPFLSVPSELDYWGQGTQVTVSS”, with “low polyreactivity”. Then “QVQLVESGGGLVQAGGSLRLSCAASGFIFRRYAMGWYRQPPGKERELVAAISGSGGRTYYADSVKGRFTISRDNAKNTVYLQMNSLKPEDTAVYYCAADHGSLLYDYWGQGTQVTVSS”, with “high polyreactivity”; and “QVQLVESGGGLVQAGGSLRLSCAASGRIFSYYAMGWYRQAPGKERELVASISRSGGSTYYANSVKGRFTISRDNAKNTVYLQMNSLKPEDTAVYYCNAEARYTGFAYSYFNSDYWGQGTQVTVSS”, with “low polyreactivity”; and “QVQLVESGGALVQAGGSLRLSCAASGSLFERYAMGWYRQAPVKEREFVATITSGGGRTYYADSVKGRFTISRDNAKNTVYLQMNSLQPEDTAVYYCTAVYRARSYDYWGQGTQVTVSS”, with “high polyreactivity”. As to “QVQLVESGGGLVQAGGSLRLSCAASGYTFGYYTMGWYRQAPGKERELVASIDSGGGTNYADSVKGRFTISRDNAKNTVYLQMNSLKPEDTEVYYCAAEYPLYWVDDFESGWRYYYWGQGTQVTVSS”, the “polyreactivity (PSR sort gate)” value is reported as “low polyreactivity”. For “QVQLEESGGGLVQAGGSLRLSCAAYGSTFSYNAMGGSRPAPGTQRELVAAITSSGSSTYYADSVKGRFTISRYNAKNTVYFQMNSLKPEDTAVYYCNAEVLFVAGQVQRNSGDYWGQGTQVTVSS”, the “polyreactivity (PSR sort gate)” value is “low polyreactivity”. For “QVQLVESGGGLVQAGGSLRLSCAASGRILYRYAMGWYRQAPGKERELVAAISRSGGDTYYADSVKGRFTISRDNAKNTVYLQMNSLKPEDTAVYYCAASFEGSGYRYDYWGQGTQVTVSS” the value was “low polyreactivity”; for “QVQLVESGGGLVQAGGSLRLSCAASGRTFRPYAMGWYRQAPGKERELVAAISYRGGITNYADSVKGRFTISRDNAKNTVYLQMNSLKPEDTAVYYCNRYAIWVSRYSDLDYWGQGTQVTVSS”, “low polyreactivity”. Take “QDQLVESGGGLVQAGGSLRLSCAASGFTFSWNAMGWYRQSPGKERQLVAAISWSGGSTYYADSVKGRFTISRDNAKNTVYLQMNSLKPEDTAVYYCNAGSTRAASRVRYDYWGQGTQVTVSS”: the “polyreactivity (PSR sort gate)” value is “high polyreactivity”.

Take “QVQLVESGGGLVQAGGSLRLSCAASGRIFSRNAMGWYRQAPGKERELVAAISGSGTSTYYAVSVKGRFTISRDNAKNTVYLQMNSLKPEDTAVSYCAADYPAVISIRRYDYWGQGTQVTVSS”: the “polyreactivity (PSR sort gate)” value is given as “low polyreactivity”. For “QVQLVESGGGLVQAGGSLRLSCAASGSTFYRYAMGWYRQAPGKERELVARITWSAGRTYYADSVKGRFTISRDTAKNTVYLQMNSLKPEDTAVYYCAADSGGFASNKRMDYWGQGTQVTVSS” the value was “high polyreactivity”; for “QVQLVESGGGLVQAGGSLRLSCAASGRIFGRYAMGWYRPAPGKERELVAAISRSGGSTYYADSVKGRFTISRDNAKNTVYLHMNSLKPEDTAVYYCAAERWTRRHYSGNDYWGQGTQVTVSS”, “low polyreactivity”; for “QVQLVESGGGLVQAGGSLRLSCAASGGTFDVYTMGWYRPAPGKERELVAAISSSGARTYYADSVKGRFTISRDNAKNTVNLQMNSLKPEDTAVFYCATRSLGLRWHYYYWGQGTQVTVSS”, “high polyreactivity”.

As for “QVQLVESGGGLVQAGGSLRLSCAASGRTFTIYAMGWYRQAPGKEREFVASITGSDGSTYYADSVKGRFTISRDNAKNTVYLQMNSLKPEDTAVYYCAAATSSAYDYWGQGTQVTVSS”, the “polyreactivity (PSR sort gate)” value is on record as “low polyreactivity”.

For the sequence “QVQLVESGGGLVQAGGSLRLSCAASGSIFRYNTMGWYRQAPGKVRELVATITRRGGSTYYADSVKGRFTISRDNAKNTVYLQMNSVKPEDTAVYYCIADNFGGPYNYWGQGTQVTVSS”, the “polyreactivity (PSR sort gate)” value is reported as “low polyreactivity”.

Turning to “QVQLVESGGGLVQAGGSLRLSCAAYGSTFGYNAMGWYRQAPGKESELVAAISSTSGSTYYADSVKGRFTISRDNAKNTVYLQMNSLKPEDTAVYYCAADDGDTNAYYFWKPYYYWGQGTQVTVSS”, the “polyreactivity (PSR sort gate)” value is “low polyreactivity”. Then “QVQLVESGGGLVQAGGSLRLSCAASGSIFGVYTMGWYRQAPGKERELVAAITSAGSTYADSVKGRFTISRDNAKNTVYLQMNSLKPEDTEVFYCNAQSVLLSLRVELREPHEYWGQGTQVTVSS”, with “low polyreactivity”.
